Reference: patent publication US9976167B2, “Group of glycosyltransferases and use thereof” (Shanghai Institutes For Biological Sciences, Chinese …, priority 2012, dated 2018)

B1: gGT13: glycosyltransferase protein with 476 amino acids, SEQ ID NO.: 4 (protein)
chain: MGAELILIPSPGVGHLVSTVEIAKLLISRDERLSITVLVMKFSHDTGVTAYTRSLQKDAPNRIVFVDLPQNESLISSPKSFFTSFIESQTSPVRDSVRQIVSRSDSNKLAGFVIDMFCTPMIDVANEFGVPTYVFFTSGAAFLGLQFYHLSLSDEHNQDLTEYKDTDVELSIPSFINPVPAKVLPSVILNKEGSTMLQSISRRFKEAKAILVNTFAELEPHAIKALGDNCKIPPIYPVGPIINLKNKEGTTQNHSSEDGIISWLDNQPPSSVVFLCFGSFGSFDEGQVREIANGLEQSGQRFLWSLRRRPEKMELPKDYENPEEVLPEGFIERTSGMGKVIGWAPQTAILSHPAVGGFVSHCGWNSTLESIWCGVPMATWPIYAEQQINAFELVKELGMAVEIKMDYREDYIFAPENNLVVTADQIEKGMRCLMMDGESEMRKKVEEMKEKSRMAMVKGGSSYISLGHFIEDVMRN
modifications: Panax ginseng; gGT13
B2: gGT30: glycosyltransferase protein with 451 amino acids, SEQ ID NO.: 6 (protein)
chain: MATQKCFRVLVFPWLAHGHISPFLELARKLIEKGNFFIYFCSTPINLISIKKKLSGDDHQNYTKSIQLVEHNLPTLPQLPPHYHTTDGLPPNLNPTLRKAFEMSKLSFPNTLNTLKPDLLICDDLFQWPEIVASSHGVPVVRFQTCSVTAASFLAHIFTNPDVTYPFPAIYLHEYETDQIRRCVDAVFESGREESRNLLVVNTSKAIEEKYFYYYSLLRGNTKIMPVGPLIQQAPNGDEDMKVIEWLDKKDPCSTVFVSFGSEYFMQKEEVEEMAHGLELSNVNFIWVFRAPVGAEKVKLPLGFVERVGGRGIVMEGWAPQARILGHSSIGGFVSHCGWNSVLETINFGVPIIGMPMKFEQPMNARLLSELGVCVEIVGDETRRFGREEVGNVIREVVGGKIGDDLRRKVKELGAKIKEKQEEEMDDVLDELVQICNKKKRTVVHHHHHH
modifications: Panax ginseng; gGT30

Legend:
[1] = test system: osteoclasts; settings: cited from earlier work
[2] = test system: B-16 melanoma cells; settings: B-16 melanoma cells (mice); cited from earlier work
[3] = test system: Morris liver cancer cells; settings: Morris liver cancer cells (rats); cited from earlier work
[4] = test system: prostate cancer cells; settings: cited from earlier work
[5] = test system: HeLa cells; settings: HeLa cells (human); cited from earlier work
[6] = test system: lung cancer cells 3LL; settings: lung cancer cells 3LL (mice); cited from earlier work
[7] = Glycosyltransfering reaction with crude enzyme, substrate PPD; format: biochemical; settings: cell lysate of recombinant yeasts, method of Example 4
[8] = Glycosyltransfering reaction with crude enzyme, substrate F2; format: biochemical; settings: cell lysate of recombinant yeasts, method of Example 4
Description: (§1) According to the method as in Example 4, the cell lysate of recombinant yeasts expressing gGT13 and gGT30 were used to catalyze PPD and PPT.
(§2) The lysate supernatant of the recombinant yeast expressing empty vectors was used as control. The reaction was conducted under 35° C. for 12 hrs, and then stopped by adding 100 μL of butanol. The product were extracted, dried in vacuum, and dissolved in methanol.
(§3) The glycosyltransfering reactions of ginsenosides Rh2 and F2 were catalyzed by using the lysate supernatant of the recombinant yeasts expressing 3GT1, 3GT2, 3GT3 and 3GT4 as crude enzymes. The 100 μL reaction system is shown as Table 3. The reaction was conducted under 35° C. for 12 hrs, and then stopped by adding 100 μL of butanol. The product were extracted, dried in vacuum, and dissolved in methanol.

[9] = Glycosyltransfering reaction with crude enzyme, substrate CK; format: biochemical; settings: cell lysate of recombinant yeasts, method of Example 4
Description: as §1
The glycosyltransfering reactions of ginsenosides and ginsengenins were catalyzed by using the lysis supernatant of the recombinant yeasts expressing 3GT1, 3GT2, 3GT3 and 3GT4 as crude enzymes. The lysis supernatant of recombinant E. coli expressing empty vectors was used as control. The 100 μL reaction system is shown as Table 3. The reaction was conducted under 35° C. for 12 hrs, then stopped by adding 100 μL of butanol. The product were extracted, dried in vacuum, and dissolved in methanol.

[10] = Glycosyltransfering reaction with crude enzyme, substrate Rh2; format: biochemical; settings: cell lysate of recombinant yeasts, method of Example 4
Description: (§4) The lysate supernatant of the recombinant yeasts expressing the empty vector was used as control.
(§5) The reaction was conducted under 35° C. for 12 hrs, then stopped by adding 100 μL of butanol. The product were extracted, dried in vacuum, and dissolved in methanol.
(§6) The reaction products were first detected by thin layer chromatography (TLC). […]
as §2, §3

[11] = Glycosyltransfering reaction with crude enzyme, substrate Rh1; format: biochemical; settings: cell lysate of recombinant yeasts, method of Example 4
Description: as §4, §5, §6

[12] = Glycosyltransfering reaction with crude enzyme, substrate PPT; format: biochemical; settings: cell lysate of recombinant yeasts, method of Example 4
[13] = Glycosyltransfering reaction with crude enzyme, substrate Rg3; format: biochemical; settings: cell lysate of recombinant yeasts, method of Example 4
Description: as §4, §5, §6

[14] = Glycosyltransfering reaction with crude enzyme, substrate F1; format: biochemical; settings: cell lysate of recombinant yeasts, method of Example 4
Description: as §1
The lysis supernatant of recombinant E. coli expressing empty vectors was used as control. The 100 μL reaction system is shown as Table 3. The reaction was conducted under 35° C. for 12 hrs, then stopped by adding 100 μL of butanol. The product were extracted, dried in vacuum, and dissolved in methanol.

[15] = Glycosyltransfering reaction with crude enzyme, substrate Rg1; format: biochemical; settings: cell lysate of recombinant yeasts, method of Example 4

Molecule	cytotoxicity to osteoclasts [1]	inhibition of the generation of osteoclasts [1]	inhibition of proliferation [2]	inhibition of proliferation [3]	inhibition of prostate cancer cells [4]	inhibition of proliferation [5]	inhibition of proliferation [6]	conversion of PPD [7]	conversion of F2 [8]	conversion of CK [9]	conversion of Rh2 [10]	conversion of Rh1 [11]	conversion of PPT [12]	conversion of Rg3 [13]	conversion of F1 [14]	conversion of Rg1 [15]
CC(C)=CCC[C@](C)(O)[C@H]1CC[C@]2(C)[C@@H]1[C@H](O)C[C@@H]1[C@@]3(C)CC[C@H](O[C@@H]4O[C@H](CO)[C@@H](O)[C@H](O)[C@H]4O)C(C)(C)[C@@H]3CC[C@]12C [ginsenoside Rh2, 3-O-β-(D-glucopyranosyl)-20(S)-protopanaxadiol]	strong cytotoxicity	poorly inhibits	can inhibit the proliferation	can inhibit the proliferation	significantly inhibit	can inhibit the proliferation	can inhibit the proliferation	–	–	–	–	–	–	–	–	–
B1	–	–	–	–	–	–	–	neither converted	neither converted	neither converted	neither converted	neither converted	neither converted	neither converted	neither converted	neither converted
B2	–	–	–	–	–	–	–	neither converted	neither converted	neither converted	neither converted	neither converted	neither converted	neither converted	neither converted	neither converted
